Experimental data reported in the supplement of paper PMC11246515.
± gives the standard deviation of the averaged measurements.

Assay: total protein half-life in vivo (active degradation + dilution); higher = more stable protein
[1] = E. coli NCM3722 delta-clpP delta-lon delta-hslV, growth: N-lim chemostat, doubling time 6 h
[2] = E. coli NCM3722 delta-clpP, growth: N-lim chemostat, doubling time 6 h
[3] = E. coli NCM3722 delta-hslV, growth: N-lim chemostat, doubling time 6 h
[4] = E. coli NCM3722 delta-lon, growth: N-lim chemostat, doubling time 6 h
[5] = E. coli NCM3722 delta-smpB, growth: N-lim chemostat, doubling time 6 h
[6] = wild type E. coli NCM3722, growth: C-lim chemostat, doubling time 6 h
[7] = wild type E. coli NCM3722, growth: C-lim chemostat, doubling time 12 h
[8] = wild type E. coli NCM3722, growth: N-lim chemostat, doubling time 6 h
[9] = wild type E. coli NCM3722, growth: N-lim chemostat, doubling time 12 h
[10] = wild type E. coli NCM3722, growth: P-lim chemostat, doubling time 6 h
[11] = wild type E. coli NCM3722, growth: P-lim chemostat, doubling time 12 h
[12] = wild type E. coli NCM3722, growth: C-lim chemostat, doubling time 3 h

## MKTFFRTVLFGSLMAVCANSYALSESEAEDMADLTAVFVFLKNDCGYQNLPNGQIRRALVFFAQQNQWDLSNYDTFDMKALGEDSYRDLSGIGIPVAKKCKALARDSLSLLAYVK [P0AA95]
[1]
  total protein half-life in vivo: 3.21 ± 0.054 h
[2]
  total protein half-life in vivo: 3.39 ± 0.072 h
[3]
  total protein half-life in vivo: 6.81 h
[4]
  total protein half-life in vivo: 2.74 h
[5]
  total protein half-life in vivo: 3.47 ± 0.12 h
[6]
  total protein half-life in vivo: 3.61 ± 0.71 h
[7]
  total protein half-life in vivo: 4.74 h
[8]
  total protein half-life in vivo: 3.1 ± 0.091 h
[9]
  total protein half-life in vivo: 5.56 ± 1.2 h
[10]
  total protein half-life in vivo: 3.21 ± 0.85 h
[11]
  total protein half-life in vivo: 5.86 ± 0.72 h

## MKTFPLQSLTIIEAQQKQFALVDSICRHFPGSEFLTGGDLGLTPGLNQPRVTQRVEQVLADAFHAQAAALVQGAGTGAIRAGLAALLKPGQRLLVHDAPVYPTTRVIIEQMGLTLITVDFNDLSALKQVVDEQQPDAALVQHTRQQPQDSYVLADVLATLRAAGVPALTDDNYAVMKVARIGCECGANVSTFSCFKLFGPEGVGAVVGDADVINRIRATLYSGGSQIQGAQALEVLRGLVFAPVMHAVQAGVSERLLALLNGGAVPEVKSAVIANAQSKVLIVEFHQPIAARVLEEAQKRGALPYPVGAESKYEIPPLFYRLSGTFRQANPQSEHCAIRINPNRSGEETVLRILRESIASI
[1]
  total protein half-life in vivo: 5.7 ± 0.96 h
[2]
  total protein half-life in vivo: 5.48 h
[3]
  total protein half-life in vivo: 4.47 h
[4]
  total protein half-life in vivo: 4.71 h
[8]
  total protein half-life in vivo: 4.59 h
[9]
  total protein half-life in vivo: 8.25 h
[10]
  total protein half-life in vivo: 5.35 h
[11]
  total protein half-life in vivo: 12.4 h

## MKTGPLNESELEWLDDILTKYNTDHAILDVAELDGLLTAVLSSPQEIEPEQWLVAVWGGADYVPRWASEKEMTRFMNLAFQHMADTAERLNEFPEQFEPLFGLREVDGSELTIVEEWCFGYMRGVALSDWSTLPDSLKPALEAIALHGTEENFERVEKMSPEAFEESVDAIRLAALDLHAYWMAHPQEKAVQQPIKAEEKPGRNDPCPCGSGKKFKQCCLH [P0AD05]
[1]
  total protein half-life in vivo: 5.402 ± 0.046 h
[2]
  total protein half-life in vivo: 5.13 ± 1.1 h
[3]
  total protein half-life in vivo: 4.22 ± 0.47 h
[4]
  total protein half-life in vivo: 4.39 ± 0.54 h
[5]
  total protein half-life in vivo: 3.3 ± 0.53 h
[6]
  total protein half-life in vivo: 5.21 ± 1.5 h
[7]
  total protein half-life in vivo: 8.89 ± 1.9 h
[8]
  total protein half-life in vivo: 3.93 ± 0.25 h
[9]
  total protein half-life in vivo: 5.34 ± 1.1 h
[10]
  total protein half-life in vivo: 4.67 ± 0.34 h
[11]
  total protein half-life in vivo: 8.41 ± 0.26 h

## MKTIEVDDELYSYIASHTKHIGESASDILRRMLKFSAASQPAAPVTKEVRVASPAIVEAKPVKTIKDKVRAMRELLLSDEYAEQKRAVNRFMLLLSTLYSLDAQAFAEATESLHGRTRVYFAADEQTLLKNGNQTKPKHVPGTPYWVITNTNTGRKCSMIEHIMQSMQFPAELIEKVCGTI [P0AFY8]
[1]
  total protein half-life in vivo: 6.27 ± 0.64 h
[2]
  total protein half-life in vivo: 5.709 ± 0.046 h
[3]
  total protein half-life in vivo: 5.89 ± 0.072 h
[4]
  total protein half-life in vivo: 5.19 ± 0.16 h
[5]
  total protein half-life in vivo: 4.27 ± 0.23 h
[12]
  total protein half-life in vivo: 2.738 ± 0.014 h
[6]
  total protein half-life in vivo: 4.84 ± 0.89 h
[7]
  total protein half-life in vivo: 12.7 ± 0.44 h
[8]
  total protein half-life in vivo: 4.7 ± 0.42 h
[9]
  total protein half-life in vivo: 8.55 ± 1.1 h
[10]
  total protein half-life in vivo: 4.71 ± 0.44 h
[11]
  total protein half-life in vivo: 9.12 ± 0.4 h

## MKTIFRYILFLALYSCCNTVSAYTSFIVGNNAGVDNYRGPSTAAQMTFNYTSTASNLVFYKPTQLGPTGVKMYWSYLDTGTGGGILYCNTSGRANPGPITIENAMVYSGKDYGGHKLFNTSVPGLYYTMLISRVWSAYDTITDIQSPGIYIGDPSNQEFFFSVTDSDLQTKGCNKADDYDKFWAIGGIVHNITVEFYTDTNFDPTLNQQVQLSSSSNYLYSFKAYSPGTKVVDHSNHIYVNFTLNNVKLTLPTCFTSILTGPSVNGSTVRMGEYSSGTIKNGASPVPFDISLQNCIRVRNIETKLVTGKVGTQNTQLLGNTLTGSTAAKGVGVLIEGLATSKNPLMTLKPNDTNSVYIDYETEDDTSDGVYPNQGNGTSQPLHFQATLKQDGNIAIEPGEFKATSTFQVTYP
[5]
  total protein half-life in vivo: 4.93 ± 0.34 h
[7]
  total protein half-life in vivo: 4.96 h

## MKTIGLLGGMSWESTIPYYRLINEGIKQRLGGLHSAQVLLHSVDFHEIEECQRRGEWDKTGDILAEAALGLQRAGAEGIVLCTNTMHKVADAIESRCTLPFLHIADATGRAITGAGMTRVALLGTRYTMEQDFYRGRLTEQFSINCLIPEADERAKINQIIFEELCLGQFTEASRAYCAQVIARLAEQGAQGVIFGCTEIGLLVPEERSVLPVFDTAAIHAEDAVAFMLS
[2]
  total protein half-life in vivo: 4.02 ± 0.18 h
[3]
  total protein half-life in vivo: 4.05 ± 0.27 h
[4]
  total protein half-life in vivo: 4.84 ± 0.066 h
[5]
  total protein half-life in vivo: 3.69 ± 0.16 h
[12]
  total protein half-life in vivo: 2.27 ± 0.064 h
[6]
  total protein half-life in vivo: 4.43 ± 0.24 h
[7]
  total protein half-life in vivo: 7.096 ± 0.017 h
[8]
  total protein half-life in vivo: 3.96 ± 0.22 h
[9]
  total protein half-life in vivo: 6.72 ± 0.36 h
[10]
  total protein half-life in vivo: 4.25 ± 0.4 h
[11]
  total protein half-life in vivo: 8.06 ± 0.15 h

## MKTKLNELLEFPTPFTYKVMGQALPELVDQVVEVVQRHAPGDYTPTVKPSSKGNYHSVSITINATHIEQVETLYEELGKIDIVRMVL [P0A8J4]
[1]
  total protein half-life in vivo: 3.54 ± 1.3 h
[2]
  total protein half-life in vivo: 2.19 ± 0.44 h
[3]
  total protein half-life in vivo: 1.24 h
[4]
  total protein half-life in vivo: 2.23 ± 0.17 h
[5]
  total protein half-life in vivo: 1.42 ± 0.17 h
[12]
  total protein half-life in vivo: 2.1 h
[6]
  total protein half-life in vivo: 2.72 h
[7]
  total protein half-life in vivo: 3.05 h
[8]
  total protein half-life in vivo: 1.34 h
[9]
  total protein half-life in vivo: 1.54 h
[10]
  total protein half-life in vivo: 2.04 ± 0.064 h
[11]
  total protein half-life in vivo: 3.43 ± 0.32 h

## MKTKVAAIYGKRDVRLRVFELPEITDNELLVSVISDSVCLSTWKAALLGSEHKRVPDDLENHPVITGHECAGVIVEVGKNLTGKYKKGQRFVLQPAMGLPSGYSAGYSYEYFGGNATYMIIPEIAINLGCVLPYHGSYFAAASLAEPMCCIIGAYHANYHTTQYVYEHRMGVKPGGNIALLACAGPMGIGAIDYAINGGIQPSRVVVVDIDDKRLAQVQKLLPVELAASKGIELVYVNTKGMSDPVQMLRALTGDAGFDDIFVYAAVPAVVEMADELLAEDGCLNFFAGPTDKNFKVPFNFYNVHYNSTHVVGTSGGSTDDMKEAIALSATGQLQPSFMVTHIGGLDAVPETVLNLPDIPGGKKLIYNGVTMPLTAIADFAEKGKTDPLFKELARLVEETHGIWNEQAEKYLLAQFGVDIGEAAQ
[1]
  total protein half-life in vivo: 6.04 ± 0.11 h

## MKTKVILSQQMASAIIAAGQEEAQKNNWSVSIAVADDGGHLLALSRMDDCAPIAAYISQEKARTAALGRRETKGYEEMVNNGRTAFVTAPLLTSLEGGVPVVVDGQIIGAVGVSGLTGAQDAQVAKAAAAVLAK [P0AEQ1]
[1]
  total protein half-life in vivo: 4.93 ± 0.46 h
[2]
  total protein half-life in vivo: 4.12 ± 0.23 h
[4]
  total protein half-life in vivo: 4.27 ± 0.26 h
[5]
  total protein half-life in vivo: 4.21 ± 0.32 h
[12]
  total protein half-life in vivo: 3.04 ± 0.057 h
[6]
  total protein half-life in vivo: 5.267 ± 0.02 h
[7]
  total protein half-life in vivo: 9.62 ± 0.24 h
[8]
  total protein half-life in vivo: 4.29 ± 0.12 h
[9]
  total protein half-life in vivo: 5.98 h
[10]
  total protein half-life in vivo: 5.43 ± 0.44 h
[11]
  total protein half-life in vivo: 11.6 ± 0.93 h
